Data from the supplement of paper PMC11908140.

B1: library; numbered along this chain (parent)
chain: MRKPRAAVGSGHRKQAASQEGRQKHAKNNSQAKPSACDGLARQPEEVVLQASVSSYHLFRDVAEVTAFRGSLLSWYDQEKRDLPWRRRAEDEMDLDRRAYAVWVSEVMLQQTQVATVINYYTGWMQKWPTLQDLASASLEEVNQLWAGLGYYSRGRRLQEGARKVVEELGGHMPRTAETLQQLLPGVGRYTAGAIASIAFGQATGVVDGNVARVLCRVRAIGADPSSTLVSQQLWGLAQQLVDPARPGDFNQAAMELGATVCTPQRPLCSQCPVESLCRARQRVEQEQLLASGSLSGSPDVEECAPNTGQCHLCLPPSEPWDQTLGVVNFPRKASRKPPREESSATCVLEQPGALGAQILLVQRPNSGLLAGLWEFPSVTWEPSEQLQRKALLQELQRWAGPLPATHLRHLGEVVHTFSHIKLTYQVYGLALEGQTPVTTVPPGARWLTQEEFHTAAVSTAMKKVFRVYQGQQPGTCMGSKRSQVSSPCSRKKPRMGQQVLDNFFRSHISTDAHSLNSAAQ

Variants of: B1
Experiment: 8OG:A repair function score (normalized; synonymous = 0, nonsense = -1) (normalized log-likelihood score); higher = more repair activity (WT-like)
Conditions: with 8OG:A DNA repair reporter (GFP) in HEK-293 MUTYH KO cells
Protocol: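 Saturation mutagenesis (NNN codon scan) of the MUTYH cDNA (521-aa nuclear isoform NM_001048174.1 / NP_001041639), stably expressed under doxycycline induction in HEK-293 MUTYH knockout cells. Cells were co-transfected with an 8OG:A-bearing GFP repair reporter plus mCherry and sorted 72 h later into GFP+ and GFP− bins, three replicates per tile. The Rosace log2 enrichment (GFP+ vs GFP−) was converted per tile to a normalized function score with synonymous variants centered at 0 and nonsense variants (codons 1-471) at -1; low-abundance variants were removed.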

Row | Variant | 8OG:A repair function score
1 | M93G | -0.0185
2 | T476G | -0.0416
3 | Y469A | -0.0759
4 | E382M | 0.019
5 | N503D | -0.0599
6 | Q271V | 0.0124
7 | M125P | -1.2
8 | Q286V | -0.0346
9 | A513V | -0.0254
10 | A461G | 0.00127
11 | A253W | -0.975
12 | G150N | -1.15
13 | Y425L | -0.213
14 | L169W | -0.0366
15 | D322C | -0.00563
16 | S136W | -0.154
17 | F418Q | -0.554
18 | R364M | -0.577
19 | L370V | -0.484
20 | A101P | -0.398
21 | G201R | -0.0601
22 | V438C | 0.134
23 | Y425F | -0.11
24 | S227T | 0.0756

Row | Variant | 8OG:A repair function score
25 | A513G | 0.0049
26 | E385S | -0.167
27 | S298A | -0.000852
28 | E275K | 0.00478
29 | T191C | -0.351
30 | A99G | -0.0185
31 | L430S | -0.127
32 | A245T | -0.0132
33 | E287G | -0.0256
34 | I118R | 0.0138
35 | W75P | -3.8
36 | Q126L | 0.0989
37 | E141Y | -0.924
38 | Q111S | -0.201
39 | Q286Y | -0.0193
40 | R467K | -0.0257
41 | K3N | 0.00918
42 | A513F | -0.00203
43 | V415N | -0.11
44 | T176W | -0.419
45 | W321Q | -0.205
46 | A291K | 0.00353
47 | V274K | -1.03
48 | A194C | -0.313

Row | Variant | 8OG:A repair function score
49 | E385P | -0.17
50 | V301W | -0.211
51 | L237C | -0.474
52 | C269N | -1.31
53 | V230E | -0.881
54 | E385M | 0.0941
55 | L501M | 0.0114
56 | P377S | -0.809
57 | C269G | -1.26
58 | T308E | -0.0446
59 | P320C | -0.000958
60 | D91P | -0.0949
61 | L432G | -0.302
62 | Q450R | 0.0701
63 | H410S | -0.169
64 | S153P | 0.0253
65 | V65L | -0.0109
66 | Q435W | -0.125
67 | G148P | -1.1
68 | L95F | -0.0596
69 | P352V | -0.096
70 | Q323R | -0.099
71 | E106V | -1.33
72 | Y121A | -0.942

Row | Variant | 8OG:A repair function score
73 | Q286R | 0.00446
74 | A445G | -0.0675
75 | W85Q | -1.14
76 | N210H | -0.833
77 | A354D | -0.0478
78 | L387Y | -0.136
79 | N143T | -0.286
80 | V102Q | -0.275
81 | C262V | -1.26
82 | P352L | -0.0502
83 | R87Q | -0.219
84 | L349T | -0.236
85 | S490G | -0.0115
86 | K464V | -0.276
87 | G353E | -0.227
88 | M173K | -0.971
89 | L241P | -0.994
90 | P316A | -0.176
91 | L109W | -0.957
92 | L325Y | -0.173
93 | K127F | -0.207
94 | Q394I | -0.343
95 | S419M | -0.561
96 | V261W | -0.489

Row | Variant | 8OG:A repair function score
97 | N119H | 0.126
98 | F250E | -1.03
99 | R175N | -0.0345
100 | A67D | 0.00532
101 | F330K | -0.928
102 | K493D | 0.0108
103 | K422A | -0.0566
104 | S296D | 0.0216
105 | A36C | 0.066
106 | D133A | -0.000201
107 | L241M | -0.522
108 | V284R | -0.149
109 | Q271M | -0.0166
110 | R163K | -0.132
111 | L392R | -1.02
112 | W399K | -0.616
113 | T476Q | -0.0039
114 | T260D | -0.355
115 | E45M | 0.00456
116 | P339D | -0.41
117 | L349P | -0.901
118 | P377K | -1.11
119 | Y428S | -0.915
120 | T476E | 0.0105

Row | Variant | 8OG:A repair function score
121 | Q388M | -0.052
122 | L349R | -1.15
123 | R332C | -0.154
124 | L290W | -0.0672
125 | L516V | 0.0206
126 | G193W | -0.832
127 | S378N | 0.0818
128 | S480I | -0.0226
129 | F466I | -0.587
130 | L234G | -0.994
131 | W103K | -1.37
132 | R2H | -0.00678
133 | L315Q | -0.193
134 | T263A | -0.167
135 | P443K | -0.324
136 | G412P | -0.295
137 | H312W | -0.103
138 | K492N | -0.00159
139 | T380D | 0.0495
140 | W399E | -0.679
141 | G309I | -0.145
142 | F68V | -0.0136
143 | T179H | 0.0778
144 | Q126S | 0.0362

Row | Variant | 8OG:A repair function score
145 | A115P | -0.0424
146 | I509W | -0.00561
147 | Q397I | -0.624
148 | L355S | -0.0259
149 | E350A | -0.188
150 | C272P | -1.26
151 | S384I | 0.0514
152 | S378W | -0.346
153 | E178K | 0.0383
154 | Q484R | 0.00822
155 | A254Q | -0.213
156 | V166T | -0.155
157 | V114M | -1.07
158 | M93T | 0.00168
159 | A259F | -0.503
160 | A520Y | 0.0286
161 | V230P | -0.409
162 | Q113M | -0.593
163 | N119G | 0.0963
164 | R389N | -0.415
165 | P185E | -0.168
166 | D61P | -0.00103
167 | R495M | 0.0166
